Key:
[1] = molecular target: dephosphorylated α-casein (UniProt P02662)
[2] = test system: poly(Glu4Tyr)

Chain of dephosphorylated α-casein (P02662 16-214): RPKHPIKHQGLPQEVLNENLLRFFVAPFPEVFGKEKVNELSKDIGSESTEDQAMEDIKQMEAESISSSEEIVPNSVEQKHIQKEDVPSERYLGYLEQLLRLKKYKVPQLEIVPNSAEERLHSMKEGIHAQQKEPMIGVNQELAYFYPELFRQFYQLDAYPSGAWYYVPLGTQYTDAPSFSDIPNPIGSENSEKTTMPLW

With “phosphorylated HGFR (autophosphorylated catalytic domain of the human hepatocyte growth factor receptor kinase)” the “Km, Dephosphorylated α-casein (coupled, enzymatic format)” value [1] was 0.0285 ± 0.0035 mM, the Km (steady-state, coupled enzymatic assay, 37 C) [2] was 8.19 mM and the kcat/Km (steady-state, coupled enzymatic assay, 37 C) [2] was 9260 s^-1M^-1.
For “catalytic domain of the human hepatocyte growth factor receptor kinase (HGFRkd), unphosphorylated”, the autophosphorylation rate was “The HGFR autophosphorylation rate is dependent on the concentration of HGFR”, the Km (steady-state, coupled enzymatic assay, 37 C) [2] was 10.1 mM and the kcat/Km (steady-state, coupled enzymatic assay, 37 C) [2] was 48.1 s^-1M^-1.

Source: US20040009568
